B1: Developmental protein … 3 (Arabidopsis thaliana (Mouse-ear cress)), O22456 (parent)
chain: MGRGRVELKRIENKINRQVTFAKRRNGLLKKAYELSVLCDAEVALIIFSNRGKLYEFCSSSSMLRTLERYQKCNYGAPEPNVPSREALAVELSSQQEYLKLKERYDALQRTQRNLLGEDLGPLSTKELESLERQLDSSLKQIRALRTQFMLDQLNDLQSKERMLTETNKTLRLRLADGYQMPLQLNPNQEEVDHYGRHHHQQQQHSQAFFQPLECEPILQIGYQGQQDGMGAGPSVNNYMLGWLPYDTNSI
partner: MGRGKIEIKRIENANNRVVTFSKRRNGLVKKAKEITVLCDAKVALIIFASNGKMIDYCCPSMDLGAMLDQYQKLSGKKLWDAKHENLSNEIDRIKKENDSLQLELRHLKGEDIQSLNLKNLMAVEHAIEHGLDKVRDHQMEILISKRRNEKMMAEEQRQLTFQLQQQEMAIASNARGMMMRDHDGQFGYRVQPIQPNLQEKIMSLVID
B2: Floral homeotic protein … (Arabidopsis thaliana (Mouse-ear cress)), P48007 (parent)
chain: B1 partner
partner: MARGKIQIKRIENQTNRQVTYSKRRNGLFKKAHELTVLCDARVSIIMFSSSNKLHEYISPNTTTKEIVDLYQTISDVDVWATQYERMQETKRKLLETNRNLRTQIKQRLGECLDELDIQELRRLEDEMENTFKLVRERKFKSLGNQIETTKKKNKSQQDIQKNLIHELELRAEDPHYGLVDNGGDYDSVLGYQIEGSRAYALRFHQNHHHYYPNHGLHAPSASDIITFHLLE
B3: Floral homeotic protein … (Arabidopsis thaliana (Mouse-ear cress)), P48007 (parent)
chain: B1 partner

Variants of: B1
Conditions: with pist_arath PI, P48007

| effect of a mutation on the interaction | Variant |
| --- | --- |
| decreasing interaction | R146E |

Variants of: B2
Conditions: with ap3_arath AP3, P35632

| effect of a mutation on the interaction | Variant |
| --- | --- |
| decreasing interaction | S145P |
| increasing interaction | N149P |
| decreasing interaction | L108S |
| increasing interaction | Q167P |
| increasing interaction | G177P |
| decreasing interaction | I142P |
| decreasing interaction | A127P |
| decreasing interaction | L132P |
| decreasing interaction | A154P |
| decreasing interaction | I91T |
| decreasing interaction | L105H |
| decreasing interaction | V124D |
| decreasing interaction | L143P |
| decreasing interaction | L87P |
| decreasing interaction | L121A |
| decreasing interaction | L121P |

| effect of a mutation on the interaction | Variant |
| --- | --- |
| decreasing interaction | I94T |
| increasing interaction | L160P |
| decreasing interaction | L101A |
| decreasing interaction | L116P |
| decreasing interaction | L116R |
| decreasing interaction | L103P |
| decreasing interaction | V135A |
| decreasing interaction | I128T |
| decreasing interaction | G110P |
| decreasing interaction | G110A |
| decreasing interaction | G131P |
| decreasing interaction | G131V |
| decreasing interaction | M153P |
| decreasing interaction | N98D |
| decreasing interaction | Q102P |

Variants of: B3
Conditions: with sep3_arath SEP3, O22456

| effect of a mutation on the interaction | Variant |
| --- | --- |
| decreasing interaction | G110P |
| increasing interaction | L160P |
| decreasing interaction | I142P |
| decreasing interaction | S145P |
| decreasing interaction | A154P |
| increasing interaction | Q167P |
| decreasing interaction | L116P |
| increasing interaction | G177P |
| decreasing interaction | L132P |
| increasing interaction | N149P |
| decreasing interaction | G131P |
| decreasing interaction | Q102P |
| decreasing interaction | L87P |
| decreasing interaction | M153P |
| decreasing interaction | L103P |

Variants of: B3
Conditions: with sep3_arath SEP3, O22456
Remark: another data set of the same source

| effect of a mutation on the interaction | Variant |
| --- | --- |
| decreasing interaction | F162L;M203T |
| decreasing interaction | I142F |
| decreasing interaction | P193L |
| decreasing interaction | E129D |
| decreasing interaction | R158Q;E168V |
| decreasing interaction | D112G;R176G |
| decreasing interaction | L118P;N149D;L160P |
| decreasing interaction | E125G |
| decreasing interaction | D99G;Q199G |
| decreasing interaction | A127P |
| decreasing interaction | S115F;K119I;N120I |
| decreasing interaction | N89S;M152V |
| decreasing interaction | I128V |
| decreasing interaction | I128F |
| decreasing interaction | L121P |
| decreasing interaction | L164Q |
| decreasing interaction | L116P;M152T |
| decreasing interaction | K151E |
| decreasing interaction | L105P;D112A;E125G;V206A |
| decreasing interaction | M122K;E141K;M178V |
| decreasing interaction | E129K;L132P |
| decreasing interaction | L143P |
| decreasing interaction | E141R;P193L |
| decreasing interaction | V124D |
| decreasing interaction | A154P;Q157E;F162L |
